Some targets named below: Thyroglobulin-NLS; IBB-nucleoplasmin (UniProt P52292); M9-βgal (UniProt P09651); IBB-βgal (UniProt P52292).
Assay in all cases: SEC
A general note: SEC sorts molecules by how far they enter the pores of the column.

Sequence of WT importin β (Q14974 whole entry): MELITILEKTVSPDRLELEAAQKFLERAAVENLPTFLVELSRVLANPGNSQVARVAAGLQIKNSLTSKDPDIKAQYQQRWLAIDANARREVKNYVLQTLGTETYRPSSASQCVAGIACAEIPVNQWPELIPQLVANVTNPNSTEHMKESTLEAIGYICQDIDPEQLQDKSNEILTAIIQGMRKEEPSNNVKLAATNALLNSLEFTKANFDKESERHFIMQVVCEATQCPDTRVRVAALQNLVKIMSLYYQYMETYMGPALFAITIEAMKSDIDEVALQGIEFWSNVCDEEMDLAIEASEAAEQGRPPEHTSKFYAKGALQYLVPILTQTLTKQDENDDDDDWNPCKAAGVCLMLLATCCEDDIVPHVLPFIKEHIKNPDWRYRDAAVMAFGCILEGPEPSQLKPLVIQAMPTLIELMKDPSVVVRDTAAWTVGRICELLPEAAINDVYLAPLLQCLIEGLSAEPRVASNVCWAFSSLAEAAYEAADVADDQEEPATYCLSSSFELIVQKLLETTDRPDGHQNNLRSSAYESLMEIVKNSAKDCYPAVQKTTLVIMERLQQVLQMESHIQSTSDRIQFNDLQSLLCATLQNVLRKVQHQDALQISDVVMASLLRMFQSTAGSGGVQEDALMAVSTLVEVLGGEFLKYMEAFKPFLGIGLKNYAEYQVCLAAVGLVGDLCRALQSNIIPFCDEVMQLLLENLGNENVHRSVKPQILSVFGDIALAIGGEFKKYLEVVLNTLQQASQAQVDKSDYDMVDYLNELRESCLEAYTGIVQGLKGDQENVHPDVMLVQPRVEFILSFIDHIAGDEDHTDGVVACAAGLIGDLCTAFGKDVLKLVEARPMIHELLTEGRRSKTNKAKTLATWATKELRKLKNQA
Sequence of WT transportin (Q92973 whole entry): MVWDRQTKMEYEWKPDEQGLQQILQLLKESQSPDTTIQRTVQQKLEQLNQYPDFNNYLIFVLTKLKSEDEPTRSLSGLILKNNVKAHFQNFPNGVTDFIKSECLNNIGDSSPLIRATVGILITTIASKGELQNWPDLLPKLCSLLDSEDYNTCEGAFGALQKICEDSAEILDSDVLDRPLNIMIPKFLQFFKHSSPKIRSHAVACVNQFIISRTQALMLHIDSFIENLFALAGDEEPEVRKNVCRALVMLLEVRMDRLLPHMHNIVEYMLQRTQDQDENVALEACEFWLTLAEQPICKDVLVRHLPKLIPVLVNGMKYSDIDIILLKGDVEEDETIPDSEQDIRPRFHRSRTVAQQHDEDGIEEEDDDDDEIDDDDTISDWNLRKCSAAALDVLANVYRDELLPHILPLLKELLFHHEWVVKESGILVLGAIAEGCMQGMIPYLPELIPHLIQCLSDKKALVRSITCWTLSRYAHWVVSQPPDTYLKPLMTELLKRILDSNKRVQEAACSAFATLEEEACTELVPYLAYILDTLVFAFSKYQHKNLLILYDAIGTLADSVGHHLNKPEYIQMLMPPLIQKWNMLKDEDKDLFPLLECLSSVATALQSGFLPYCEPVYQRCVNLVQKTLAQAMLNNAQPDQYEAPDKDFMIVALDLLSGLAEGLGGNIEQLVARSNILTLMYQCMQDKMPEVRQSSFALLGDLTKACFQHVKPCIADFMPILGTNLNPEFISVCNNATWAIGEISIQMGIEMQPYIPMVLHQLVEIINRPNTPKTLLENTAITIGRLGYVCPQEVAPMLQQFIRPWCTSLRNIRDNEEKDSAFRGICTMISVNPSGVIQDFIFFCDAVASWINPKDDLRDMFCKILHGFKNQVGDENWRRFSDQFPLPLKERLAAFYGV

One may read the stoichiometry N as the number of molecules, sites or subunits per partner or assembly. The substance Thyroglobulin-NLS had a stoichiometry N with Thyroglobulin-NLS of 2.
With “IBB-nucleoplasmin (from UniProt P52292 1-65; P05221 1-149)”, in the assay with IBB-nucleoplasmin, the stoichiometry N worked out at 10.
For M9-βgal (from UniProt P09651-2 255-320), the stoichiometry N with M9-βgal was found to be 4.
For the substance “WT importin β (from UniProt Q14974 1-876) (natural protein)”, the results for the stoichiometry N (receptors per cargo) in the assay with IBB-nucleoplasmin and with IBB-βgal were 5 and 4, respectively.
In the assay with M9-βgal, “WT transportin (from UniProt Q92973 1-898) (natural protein)” came in with a stoichiometry N (receptors per cargo) of 4.

Values taken from paper PMC2173498.
